Among the data in patent US7176008B2, “Process for producing activated thrombin-activatable fibrinolysis inhibitor” (Merck & Co., Inc., priority 2002, dated 2007) are Km values, retold here.

Substrate in this data set: CSCC[C@H](NC(=O)[C@H](CC(C)C)NC(=O)CNC(=O)CCCCCNC(=O)CCCCCNC(=O)CCCC[C@@H]1SC[C@@H]2NC(=O)N[C@@H]21)C(=O)N[C@H](C(=O)NCC(=O)NCC(=O)N[C@H](C(=O)N[C@H](C(=O)N[C@@H](CCCNC(=N)N)C(=O)O)C(C)C)C(C)C)C(C)C
Kind of data set: purified protein, by the assay type. The settings on record: other: room temperature.

Procedure: A typical assay (75 μL) contained each studied carboxypeptidase and selected inhibitors (in 5 μL DMSO) in HBSP buffer in 96-well round bottom microtiter plates (Costar 3365 plates). Enzyme and compound were preincubated for 15–30 minutes at room temperature. […] The final substrate concentration was 15 to 50 nM. The amount of carboxypeptidase activity was titrated to result in 40,000–50,000 electrochemiluminescence counts (typically 0.02–0.1 nM, 0.01 nM, 5 nM, and 0.15–0.65 nM. for TAFIa, CPB, CPN and CPM, respectively). […] Ruthenium-labeled G2-10 (25 μL of 0.063 μg/mL) and streptavidin magnetic beads (25 μL of 0.2 mg/mL, Dynabeads M-280) were added to the quenched solution and shaken at 300 rpm for >1 hr. G2-10 antibody and beads were prepared in a BSA diluent containing 150 mM phosphate, pH 7.8, 150 mM NaCl, 3% (w/v) BSA (protease free fraction V) and 0.05% NaN3. The volume was brought to 250 μL with HBSP and read on an Igen 96-well electrochemiluminescence plate reader (M8 Analyzer) at 620 nm. Subtraction of background activity in solutions containing only substrate was performed to determine the final activity. […] One unit was defined as one nM product generated per min.
All measurements were performed in at least duplicates and the inhibition constants (Ki) were determined by the equation below wherein Vo and Vi are activity in the absence and presence of inhibitors, respectively. Vo/Vi=1+[I]/K1
Several commercial inhibitors were tested with the electrochemiluminescence assay.
Hydrolysis of substrate was measured in HBSP (pH 7.4) for TAFIa, CPB, CPM, and CPM. Activities of CPE and CPZ were measures in acetate buffer (pH 5.5) and Tris buffer (pH 7.4), respectively.

B1: TAFIa (Homo sapiens) (protein)
chain: ASASYYEQYHSLNEIYSWIEFITERHPDMLTKIHIGSSFEKYPLYVLKVSGKEQAAKNAIWIDCGIHAREWISPAFCLWFIGHITQFYGIIGQYTNLLRLVDFYVMPVVNVDGYDYSWKKNRMWRKNRSFYANNHCIGTDLNRNFASKHWCEEGASSSSCSETYCGLYPESEPEVKAVASFLRRNINQIKAYISMHSYSQHIVFPYSYTRSKSKDHEELSLVASEAVRAIEKISKNTRYTHGHGSETLYLAPGGGDDWIYDLGIKYSFTIELRDTGTYGFLLPERYIKPTCREAFAAVSKIAWHVIRNV
The term Km denotes the substrate concentration at which the rate is half of its maximum. In the case of B1, the Km (HBSP pH 7.4) was determined as 8 µM.

B2: CPB (Homo sapiens) (protein)
chain: ATGHSYEKYNKWETIEAWTQQVATENPALISRSVIGTTFEGRAIYLLKVGKAGQNKPAIFMDCGFHAREWISPAFCQWFVREAVRTYGREIQVTELLDKLDFYVLPVLNIDGYIYTWTKSRFWRKTRSTHTGSSCIGTDPNRNFDAGWCEIGASRNPCDETYCGPAAESEKETKALADFIRNKLSSIKAYLTIHSYSQMMIYPYSYAYKLGENNAELNALAKATVKELASLHGTKYTYGPGATTIYPAAGGSDDWAYDQGIRYSFTFELRDTGRYGFLLPESQIRATCEETFLAIKYVASYVLEHLY
With B2, the Km (HBSP pH 7.4) worked out at 12 µM.

B3: CPM (Homo sapiens) (protein)
chain: LDFNYHRQEGMEAFLKTVAQNYSSVTHLHSIGKSVKGRNLWVLVVGRFPKEHRIGIPEFKYVANMHGDETVGRELLLHLIDYLVTSDGKDPEITNLINSTRIHIMPSMNPDGFEAVKKPDCYYSIGRENYNQYDLNRNFPDAFEYNNVSRQPETVAVMKWLKTETFVLSANLHGGALVASYPFDNGVQATGALYSRSLTPDDDVFQYLAHTYASRNPNMKKGDECKNKMNFPNGVTNGYSWYPLQGGMQDYNYIWAQCFEITLELSCCKYPREEKLPSFWNNNKASLIEYIKQVHLGVKGQVFDQNGNPLPNVIVEVQDRKHICPYRTNKYGEYYLLLLPGSYIINVTVPGHDPHITKVIIPEKSQNFSALKKDILLPFQGQLDSIPVSNPSCPMIPLYRNLPDHS
As to B3, the Km turned out to be 38 µM.
